Laboratory results as given in article PMC4912634.

Biological target: tubulin heterodimer (porcine/bovine brain tubulin) (not stated (porcine or bovine brain)) (UniProt Q6B856)
Test: ITC; PN2-3 proteins/peptides titrated into tubulin in the cell; 15 °C; 1xBRB80 (80 mM PIPES-K, 1 mM MgCl2, 1 mM EGTA, pH 6.8); one set of binding sites model; tubulin 9 μM for wild type and mutant PN2-3

Binder: KQPFLKRGEGLARFTNAKSKFQK [PN2-3C peptide (PN2-3's C-terminus, aa 372-394 of CPAP)]
- Kd: 4.8 µM
